Test system: Escherichia coli TOP10
Experiment: shrunken log2 fold change of peptide-encoding DNA abundance (4.5 h post-induction vs induction); higher = less antimicrobial activity (less host growth inhibition)
Details: time post-induction: 4.5 h; library: site-saturation at positions 5, 18, 19, 20
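Note: peptides expressed intracellularly from a pBAD plasmid library in pooled LB shake-flask culture, induced with 0.3% L-arabinose, DNA abundance read by NGS, three biological replicates, DESeq2 with apeglm shrinkage.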

Row | Sequence | shrunken log2 fold change
1 | RRIRHRPPRLPRPRPRPPGLPRP | 0.0255
2 | RRIRFRPPRLPRPRPRPVGSPRP | -0.0263
3 | RRIRARPPRLPRPRPRPNTMPRP | -0.223
4 | RRIRWRPPRLPRPRPRPRDEPRP | 0.0548
5 | RRIRCRPPRLPRPRPRPIELPRP | -0.0768
6 | RRIRRRPPRLPRPRPRPSYMPRP | -0.257
7 | RRIRNRPPRLPRPRPRPPRLPRP | 0.514
8 | RRIRHRPPRLPRPRPRPWDCPRP | -0.00608
9 | RRIRTRPPRLPRPRPRPQYPPRP | -0.923
10 | RRIRARPPRLPRPRPRPGGVPRP | 0.626
11 | RRIRPRPPRLPRPRPRPMSKPRP | -0.276
12 | RRIRKRPPRLPRPRPRPNKDPRP | 0.0544
13 | RRIRNRPPRLPRPRPRPWNGPRP | -0.368
14 | RRIRRRPPRLPRPRPRPEVKPRP | 0.418
15 | RRIRDRPPRLPRPRPRPSKLPRP | -0.317
16 | RRIRPRPPRLPRPRPRPSETPRP | -0.182
17 | RRIRHRPPRLPRPRPRPPTHPRP | -0.117
18 | RRIRQRPPRLPRPRPRPARYPRP | 0.0932
19 | RRIRLRPPRLPRPRPRPVDDPRP | -0.219
20 | RRIRVRPPRLPRPRPRPYQSPRP | -0.0308

Row | Sequence | shrunken log2 fold change
21 | RRIRKRPPRLPRPRPRPQTNPRP | 0.271
22 | RRIRHRPPRLPRPRPRPTSKPRP | -0.125
23 | RRIRHRPPRLPRPRPRPVEVPRP | 0.0201
24 | RRIRGRPPRLPRPRPRPNDYPRP | -0.0119
25 | RRIRIRPPRLPRPRPRPWVFPRP | -0.397
26 | RRIRWRPPRLPRPRPRPASWPRP | 0.576
27 | RRIRDRPPRLPRPRPRPPELPRP | 0.107
28 | RRIRTRPPRLPRPRPRPVNYPRP | 0.0177
29 | RRIRHRPPRLPRPRPRPMMPPRP | -0.365
30 | RRIRVRPPRLPRPRPRPHTKPRP | 0.11
31 | RRIRTRPPRLPRPRPRPFMDPRP | 0.108
32 | RRIRARPPRLPRPRPRPPPKPRP | 1.29
33 | RRIRLRPPRLPRPRPRPHFVPRP | -0.0621
34 | RRIRWRPPRLPRPRPRPNAWPRP | 0.826
35 | RRIRSRPPRLPRPRPRPCAHPRP | -0.235
36 | RRIRARPPRLPRPRPRPYHFPRP | -0.186
37 | RRIRLRPPRLPRPRPRPRYQPRP | -0.0283
38 | RRIRCRPPRLPRPRPRPDNEPRP | -0.229
39 | RRIRSRPPRLPRPRPRPHMFPRP | -0.428
40 | RRIRFRPPRLPRPRPRPKQQPRP | 0.146

Row | Sequence | shrunken log2 fold change
41 | RRIRWRPPRLPRPRPRPYMQPRP | -0.422
42 | RRIRYRPPRLPRPRPRPRHSPRP | -0.127
43 | RRIRFRPPRLPRPRPRPSCHPRP | -0.495
44 | RRIRTRPPRLPRPRPRPKETPRP | 0.137
45 | RRIRARPPRLPRPRPRPEDMPRP | 0.816
46 | RRIRARPPRLPRPRPRPREMPRP | 0.563
47 | RRIRWRPPRLPRPRPRPFVDPRP | 0.0365
48 | RRIRIRPPRLPRPRPRPHFHPRP | -0.424
49 | RRIRNRPPRLPRPRPRPEQDPRP | 0.0235
50 | RRIRARPPRLPRPRPRPLVMPRP | 0.0657
51 | RRIRKRPPRLPRPRPRPKYPPRP | 0.0162
52 | RRIRYRPPRLPRPRPRPRSPPRP | 0.0591
53 | RRIRNRPPRLPRPRPRPAFFPRP | 0.0459
54 | RRIRLRPPRLPRPRPRPCKSPRP | -0.264
55 | RRIRDRPPRLPRPRPRPDRMPRP | -0.00945
56 | RRIRARPPRLPRPRPRPKTVPRP | 0.141
57 | RRIRGRPPRLPRPRPRPPLWPRP | 1.09
58 | RRIRNRPPRLPRPRPRPQEAPRP | -0.0152
59 | RRIRPRPPRLPRPRPRPFVCPRP | -0.395
60 | RRIRLRPPRLPRPRPRPACKPRP | 0.00454

From the supplement of paper PMC9112550, “Optimization of the antimicrobial peptide Bac7 by deep mutational scanning” (BMC Biology, 2022)
